Molecular target: T1, wild-type L1Fc chimeric protein (human, UniProt P32004 20-1120)
T1 construct: Produced in COS-7 cells, purified on protein A-Sepharose; in the two-color assay it was held on anti-human IgG coated beads; also called soluble L1; wt; not shown: immunoglobulin Fc, human (cross-linked with anti-human Fc antibodies)
Assay: two-color FACS bead aggregation, mutant L1Fc beads with wild-type L1Fc beads, mixed aggregates at 30 min

Binder	homophilic binding, percent of wild-type levels
A426D mutant L1Fc chimera (Fc fusion, UniProt P32004 20-1120, looked up, not shown: immunoglobulin Fc, human) IQIPEEYEGHHVMEPPVITEQSPRRLVVFPTDDISLKCEASGKPEVQFRWTRDGVHFKPKEELGVTVYQSPHSGSFTITGNNSNFAQRFQGIYRCFASNKLGTAMSHEIRLMAEGAPKWPKETVKPVEVEEGESVVLPCNPPPSAEPLRIYWMNSKILHIKQDERVTMGQNGNLYFANVLTSDNHSDYICHAHFPGTRTIIQKEPIDLRVKATNSMIDRKPRLLFPTNSSSHLVALQGQPLVLECIAEGFPTPTIKWLRPSGPMPADRVTYQNHNKTLQLLKVGEEDDGEYRCLAENSLGSARHAYYVTVEAAPYWLHKPQSHLYGPGETARLDCQVQGRPQPEVTWRINGIPVEELAKDQKYRIQRGALILSNVQPSDTMVTQCEARNRHGLLLANAYIYVVQLPDKILTADNQTYMAVQGSTAYLLCKAFGAPVPSVQWLDEDGTTVLQDERFFPYANGTLGIRDLQANDTGRYFCLAANDQNNVTIMANLKVKDATQITQGPRSTIEKKGSRVTFTCQASFDPSLQPSITWRGDGRDLQELGDSDKYFIEDGRLVIHSLDYSDQGNYSCVASTELDVVESRAQLLVVGSPGPVPRLVLSDLHLLTQSQVRVSWSPAEDHNAPIEKYDIEFEDKEMAPEKWYSLGKVPGNQTSTTLKLSPYVHYTFRVTAINKYGPGEPSPVSETVVTPEAAPEKNPVDVKGEGNETTNMVITWKPLRWMDWNAPQVQYRVQWRPQGTRGPWQEQIVSDPFLVVSNTSTFVPYEIKVQAVNSQGKGPEPQVTIGYSGEDYPQAIPELEGIEILNSSAVLVKWRPVDLAQVKGHLRGYNVTYWREGSQRKHSKRHIHKDHVVVPANTTSVILSGLRPYSSYHLEVQAFNGRGSGPASEFTFSTPEGVPGHPEALHLECQSNTSLLLRWQPPLSHNGVLTGYVLSYHPLDEGGKGQLSFNLRDPELRTHNLTDLSPHLRYRFQLQATTKEGPGEAIVREGGTMALSGISDFGNISATAGENYSVVSWVPKEGQCNFRFHILFKALGEEKGGASLSPQYVSYNQSSYTQWDLQPDTDYEIHLFKERMFRHQMAVKTNGTGRVRLPPAGFATE	74.4 % of wild-type levels
H210Q mutant L1Fc chimera (Fc fusion, UniProt P32004 20-1120, looked up, not shown: immunoglobulin Fc, human) IQIPEEYEGHHVMEPPVITEQSPRRLVVFPTDDISLKCEASGKPEVQFRWTRDGVHFKPKEELGVTVYQSPHSGSFTITGNNSNFAQRFQGIYRCFASNKLGTAMSHEIRLMAEGAPKWPKETVKPVEVEEGESVVLPCNPPPSAEPLRIYWMNSKILHIKQDERVTMGQNGNLYFANVLTSDNHSDYICQAHFPGTRTIIQKEPIDLRVKATNSMIDRKPRLLFPTNSSSHLVALQGQPLVLECIAEGFPTPTIKWLRPSGPMPADRVTYQNHNKTLQLLKVGEEDDGEYRCLAENSLGSARHAYYVTVEAAPYWLHKPQSHLYGPGETARLDCQVQGRPQPEVTWRINGIPVEELAKDQKYRIQRGALILSNVQPSDTMVTQCEARNRHGLLLANAYIYVVQLPAKILTADNQTYMAVQGSTAYLLCKAFGAPVPSVQWLDEDGTTVLQDERFFPYANGTLGIRDLQANDTGRYFCLAANDQNNVTIMANLKVKDATQITQGPRSTIEKKGSRVTFTCQASFDPSLQPSITWRGDGRDLQELGDSDKYFIEDGRLVIHSLDYSDQGNYSCVASTELDVVESRAQLLVVGSPGPVPRLVLSDLHLLTQSQVRVSWSPAEDHNAPIEKYDIEFEDKEMAPEKWYSLGKVPGNQTSTTLKLSPYVHYTFRVTAINKYGPGEPSPVSETVVTPEAAPEKNPVDVKGEGNETTNMVITWKPLRWMDWNAPQVQYRVQWRPQGTRGPWQEQIVSDPFLVVSNTSTFVPYEIKVQAVNSQGKGPEPQVTIGYSGEDYPQAIPELEGIEILNSSAVLVKWRPVDLAQVKGHLRGYNVTYWREGSQRKHSKRHIHKDHVVVPANTTSVILSGLRPYSSYHLEVQAFNGRGSGPASEFTFSTPEGVPGHPEALHLECQSNTSLLLRWQPPLSHNGVLTGYVLSYHPLDEGGKGQLSFNLRDPELRTHNLTDLSPHLRYRFQLQATTKEGPGEAIVREGGTMALSGISDFGNISATAGENYSVVSWVPKEGQCNFRFHILFKALGEEKGGASLSPQYVSYNQSSYTQWDLQPDTDYEIHLFKERMFRHQMAVKTNGTGRVRLPPAGFATE	90.5 % of wild-type levels
